The results in this text go back to patent publication US20050118651A1.

pEC50: −log10 of the molar value.

The target of assay [1] is synthetic Aβ1-42 peptide (aggregated in the ELISAs) (human) (UniProt P05067). The experiment in a line: ELISA on aggregated synthetic Aβ1-42; given as ED50.
Assay [2] deals with soluble [125I]Aβ1-42 (synthetic Aβ1-42 sonicated in DMSO, radio-iodinated) (human) (UniProt P05067). Put plainly: capture radioimmunoassay, 50,000 CPM of 125I-Aβ1-42 (or 125I-Aβ1-40), antibody at 10 µg/ml.

As for antibody 10D5 (IgG1), in assay [1], the pEC50 – broadly, the EC50 on a negative log10 scale, so that one unit is a factor of ten – is 10.28. Moreover, the % of radioactive counts bound at 10 µg/ml in assay [2] was 2%.
antibody 12B4 (IgG2a): in assay [1], the pEC50 was 9.18. The % of radioactive counts bound at 10 µg/ml in assay [2] is 7%.
